# In patent US20170283834A1, “Processes for Producing A Fermentation Product Using A Fermenting Organism” (Novozymes A/S, priority 2014, published 2017):
# Changes are numbered by the printed parent chain. Names and notes keep the numbering of the source.
# B1: JTP092: protease variant of SEQ ID NO: 3: ΔS5/N26R/D79L/S87P/A112P/D142L (protein, listed as Thermoascus aurantiacus)
# chain: MRLVASLTALVALSVPVFPAAVNVKRASSYLEITLSQVSNTLIKAVVQNTGSDELSFVHLNFFKDPAPVKKVSVYRDGSEVQFEGILSRYKSTGLSRDAFTYLAPGESVEDVFDIASTYDLTSGGPVTIRTEGVVPYATANSTDIAGYISYSSNVLTIDVDGAAAATVSKAITPLDRRTRISCSGSRQSALTTALRNAASLARAAADAAQSGSASKFSEYFKTTSSSTRQTVAARLRAVAREASSSSSGATTYYCLDPYGYCSPNVLAYTLPSYNIIANCDIFYTYLPPLTSTCHAQDQATTALHEFTHAPGVYSPGTLDLAYGYQAAMGLSSSQAVMNADTYALYANAIYLGC
# B2: JTP082: protease variant of SEQ ID NO: 3: ΔS5/D79L/S87P/A112P/D142L (protein, listed as Thermoascus aurantiacus)
# chain: B1 chain with R203N
# B3: JTP091: protease variant of SEQ ID NO: 3: D79L/S87P/A112P/T124V/D142L (protein, listed as Thermoascus aurantiacus)
# chain: MRLVASLTALVALSVPVFPAAVNVKRASSYLEITLSQVSNTLIKAVVQNTGSDELSFVHLNFFKDPAPVKKVSVYRDGSEVQFEGILSRYKSTGLSRDAFTYLAPGESVEDVFDIASTYDLTSGGPVTIRTEGVVPYATANSTDIAGYISYSSNVLTIDVDGAAAATVSKAITPLDRRTRISSCSGSRQSALTTALRNAASLANAAADAAQSGSASKFSEYFKTTSSSTRQTVAARLRAVAREASSSSSGATTYYCLDPYGYCSPNVLAYTLPSYNIIANCDIFYTYLPPLTSTCHAQDQAVTALHEFTHAPGVYSPGTLDLAYGYQAAMGLSSSQAVMNADTYALYANAIYLGC
# B4: JTP101: protease variant of SEQ ID NO: 3: A27K/D79L/S87P/A112P/T124V/D142L (protein, listed as Thermoascus aurantiacus)
# chain: B3 chain with A205K
# B5: JTP117: protease variant of SEQ ID NO: 3: D79L/Y82F/S87P/A112P/T124V/D142L (protein, listed as Thermoascus aurantiacus)
# chain: B3 chain with Y260F
# B6: JTP127: protease variant of SEQ ID NO: 3: D79L/S87P/A112P/T124V/A126V/D142L (protein, listed as Thermoascus aurantiacus)
# chain: B3 chain with A304V
# B7: JTP196: protease variant of SEQ ID NO: 3: A27K D79L Y82F S87G D104P A112P A126V D142L (protein, listed as Thermoascus aurantiacus)
# chain: B3 chain with A205K, Y260F, P265G, D282P, V302T, A304V
# B8: JTP095: protease variant of SEQ ID NO: 3: N26R/T46R/D79L/S87P/A112P/D142L (protein, listed as Thermoascus aurantiacus)
# chain: B3 chain with N204R, T224R, V302T
# B9: JTP096: protease variant of SEQ ID NO: 3: T46R/D79L/S87P/T116V/D142L (protein, listed as Thermoascus aurantiacus)
# chain: B3 chain with T224R, P290A, T294V, V302T
# B10: JTP099: protease variant of SEQ ID NO: 3: D79L/P81R/S87P/A112P/D142L (protein, listed as Thermoascus aurantiacus)
# chain: B3 chain with P259R, V302T
# B11: JTP116: protease variant of SEQ ID NO: 3: D79L/Y82F/S87P/A112P/T124V/D142L (protein, listed as Thermoascus aurantiacus)
# chain: B3 chain with Y260F
# B12: Pfu S: commercial Pyrococcus furiosus protease purchased from Takara Bio Inc, (Japan); SEQ ID NO: 13 (protein, listed as Pyrococcus furiosus)
# chain: AELEGLDESAAQVMATYVWNLGYDGSGITIGIIDTGIDASHPDLQGKVIGWVDFVNGRSYPYDDHGHGTHVASIAAGTGAASNGKYKGMAPGAKLAGIKVLGADGSGSISTIIKGVEWAVDNKDKYGIKVINLSLGSSQSSDGTDALSQAVNAAWDAGLVVVVAAGNSGPNKYTIGSPAAASKVITVGAVDKYDVITSFSSRGPTADGRLKPEVVAPGNWIIAARASGTSMGQPINDYYTAAPGTSMATPHVAGIAALLLQAHPSWTPDKVKTALIETADIVKPDEIADIAYGAGRVNAYKAINYDNYAKLVFTGYVANKGSQTHQFVISGASFVTATLYWDNANSDLDLYLYDPNGNQVDYSYTAYYGFEKVGYYNPTDGTWTIKVVSYSGSANYQVDVVSDGSLSQPGSS
# modifications: mat_peptide (1)..(412) Pyrococcus furiosus protease (Pfu)
# Assays:
# Format in all cases: biochemical
# azo-casein = assay: Remaining activity assay of protease variants (azo-casein); conditions: pH 4.5, 4° C. as reference; for Remaining activity 84° C.: 10 min at 84° C.; for Remaining activity 80° C.: 10 min at 80° C.
# Procedure: Yeast clones on SC-glucose were inoculated to a well of a 96-well micro titre plate and cultivated at 28° C. for 3 days. Protease activity was measured at 65° C. using azo-casein (Megazyme) after incubating the culture supernatant in 20 mM sodium acetate buffer, pH 4.5, for 10 min at a certain temperature (80° C. or 84° C. with 4° C. as a reference) to determine the remaining activity. The clones with higher remaining activity than the parental variant were selected and the sequence was determined.
# 20 microL of samples were mixed with 150 microL of substrate solution (4 ml of 12.5% azo-casein in ethanol in 96 ml of 20 mM sodium acetate, pH 4.5, containing 0.01% triton-100 and 0.25 mM ZnSO4) and incubated for 4 hours or longer.
# After adding 20 microL/well of 100% trichloroacetic acid (TCA) solution, the plate was centrifuge and 100 microL of supernatants were pipette out to measure A440.
# zein [1] = assay: Relative activity assay of protease variants (zein micro titer plate); conditions: for Relative activity 75° C./65° C.: Table 4
# Procedure, shortened: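 Yeast culture supernatants (3 days, 28 °C) incubated over 4 h or overnight on zein-agar plates (pH 4.5 acetate, 0.25 mM ZnSO4) at two temperatures. Zein turbidity read at A630; higher/lower-temperature activity ratio gives relative thermoactivity.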
# zein [2] = assay: Zein-BCA assay, temperature profile of purified protease variants
# Procedure: Selected variants showing good thermo-stability were purified and the purified enzymes were used in a zein-BCA assay as described below. The remaining protease activity was determined at 60° C. after incubation of the enzyme at elevated temperatures as indicated for 60 min.
# Zein-BCA assay was performed to detect soluble protein quantification released from zein by variant proteases at various temperatures.
# • 1) Mix 10 ul of 10 ug/ml enzyme solutions and 100 ul of 0.025% zein solution in a micro titer plate (MTP). • 2) Incubate at various temperatures for 60 min. • 3) Add 10 ul of 100% trichloroacetic acid (TCA) solution. • 4) Centrifuge MTP at 3500 rpm for 5 min. • 5) Take out 15 ul to a new MTP containing 100 ul of BCA assay solution (Pierce Cat#:23225, BCA Protein Assay Kit). • 6) Incubate for 30 min. at 60° C. • 7) Measure A562.
# zein [3] = assay: Thermostability of Protease Pfu (Relative Activity, methods of Example 2); conditions: pH 4.5
# Procedure: Yeast clones on SC-glucose were inoculated to a well of a 96-well micro titre plate containing YPD+Zn medium and cultivated at 28° C. for 3 days. The culture supernatants were applied to a 96-well zein micro titer plate and incubated at at least 2 temperatures (ex. 60° C. and 65° C., 70° C. and 75° C., 70° C. and 80° C.) for more than 4 hours or overnight. The turbidity of zein in the plate was measured as A630 and the relative activity (higher/lower temperatures) was determined as an indicator of thermoactivity improvement. The clones with higher relative activity than the parental variant were selected and the sequence was determined.
# The thermostability of the Pyrococcus furiosus protease (Pfu S) purchased from Takara Bio Inc, (Japan) was tested using the same methods as in Example 2.
molecule,measurement,setting,value
B1,Remaining activity 84° C.,azo-casein,60%
B2,Remaining activity 84° C.,azo-casein,53%
same,Relative activity 75° C./65° C.,zein [1],129%
B3,Remaining activity 80° C.,azo-casein,43%
same,Relative activity 75° C./65° C.,zein [1],154%
B4,Remaining activity 80° C.,azo-casein,81%
B5,Remaining activity 80° C.,azo-casein,94%
B6,Remaining activity 80° C.,azo-casein,53%
B7,Bovine serum albumin equivalent peptide released,zein [2]; Sample incubated 60 min at 60° C.,87 µg/mL
same,Bovine serum albumin equivalent peptide released,zein [2]; Sample incubated 60 min at 70° C.,99 µg/mL
same,Bovine serum albumin equivalent peptide released,zein [2]; Sample incubated 60 min at 75° C.,103 µg/mL
same,Bovine serum albumin equivalent peptide released,zein [2]; Sample incubated 60 min at 80° C.,106 µg/mL
same,Bovine serum albumin equivalent peptide released,zein [2]; Sample incubated 60 min at 85° C.,117 µg/mL
same,Bovine serum albumin equivalent peptide released,zein [2]; Sample incubated 60 min at 90° C.,90 µg/mL
same,Bovine serum albumin equivalent peptide released,zein [2]; Sample incubated 60 min at 95° C.,38 µg/mL
same,Relative activity 75° C./70° C.,"zein [1]; Table 5, lower part",102%
same,Relative activity 80° C./70° C.,"zein [1]; Table 5, lower part",55%
same,Relative activity 85° C./70° C.,"zein [1]; Table 5, upper part",18%
B8,Remaining activity 84° C.,azo-casein,62%
B9,Remaining activity 84° C.,azo-casein,67%
B10,Remaining activity 84° C.,azo-casein,80%
B11,Remaining activity 80° C.,azo-casein,59%
B12,thermostability (Relative Activity) 80° C./70° C.,zein [3],110%
same,thermostability (Relative Activity) 90° C./70° C.,zein [3],103%
